{
  "source": "paper PMC5519724",
  "about": "“Direct binding to GABARAP family members is essential for HIV-1 Nef plasma membrane localization” (Scientific Reports, 2017)",
  "binders": {"B1": {"name": "recombinant human GABARAP (natural protein)", "chain": "MKFVYKEEHPFEKRRSEGEKIRKKYPDRVPVIVEKAPKARIGDLDKKKYLVPSDLTVGQFYFLIRKRIHLRAEDALFFFVNNVIPPTSATMGQLYQEHHEEDFFLYIAYSDESVYGL", "notes": "also called 15N-GABARAP; [U-15N]-GABARAP"}},
  "target": "T1, recombinant HIV-1 Nef (SF2) with C-terminal hexahistidine tag (HIV-1 (SF2), UniProt P03407)",
  "T1 construct": "also called Nef protein; Nef-Sepharose",
  "T1 sequence (P03407 whole entry)": "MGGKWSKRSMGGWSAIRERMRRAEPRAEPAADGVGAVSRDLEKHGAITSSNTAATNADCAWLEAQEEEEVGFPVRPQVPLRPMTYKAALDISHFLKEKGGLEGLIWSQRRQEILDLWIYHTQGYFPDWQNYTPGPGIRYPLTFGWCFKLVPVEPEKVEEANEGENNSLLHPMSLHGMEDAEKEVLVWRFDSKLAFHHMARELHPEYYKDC",
  "assay": "SPR; in vitro; estimate of the affinity; who was immobilised and the conditions are not told in the text (Supplementary Fig. 5)",
  "details": "both partners purified",
  "data": [
    {"binder": "B1", "values": [
      {"measurement": "Kd", "value": "~20", "unit": "µM"}
    ]}
  ]
}
